According to publication PMC10127577:

Key:
[1] = target: cleaved, mature CDTb (from limited trypsinization of proCDTb) (Clostridioides difficile); experiment: negative-stain electron microscopy
[2] = target: cleaved, mature CDTb (from limited trypsinization of proCDTb) (Clostridioides difficile); experiment: SEC; CDTb oligomerization assay: 500 μg proCDTb at 1 mg/mL, untreated or with trypsin 1:20 (wt/wt) at 37°C for 20 min, with buffer or 2-fold molar excess of Fab; Superdex 200 Increase 10/300 GL in 20 mM Tris pH 8, 100 mM NaCl, 6 mM CaCl2

Question: With “cleaved, mature CDTb (from limited trypsinization of proCDTb) (natural protein)” as the substance, how does the stoichiometry N [1] read?
Answer: Its stoichiometry N is 14.

Question: And the percent of cleaved CDTb oligomerized [2]?
Answer: Its percent of cleaved CDTb oligomerized is 5%.
